Measurements taken from patent publication US20170306005A1 (NASCIENT, published 2017).

Tests used:
[1] = molecular target: T1, human tenascin-R rCd4-His-FBG (rat; human, UniProt P05540 207-392, limits assumed); experiment: SPR, captured purified IgG4, 37 C; purified IgG4, full kinetics, SPR at 37 C
T1 construct: domain: domains 3 and 4; C-terminal FBG fusion; also called Hu TNR; human TNR rCd4-His-FBG; not shown: 6His tag
T1 sequence (chain (part 1 of 2)): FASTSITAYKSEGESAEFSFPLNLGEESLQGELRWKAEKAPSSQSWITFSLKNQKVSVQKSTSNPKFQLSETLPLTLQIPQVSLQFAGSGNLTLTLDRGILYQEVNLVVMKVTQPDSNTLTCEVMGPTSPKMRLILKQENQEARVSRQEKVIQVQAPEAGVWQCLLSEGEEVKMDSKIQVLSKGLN
T1 sequence (chain (part 2 of 2)): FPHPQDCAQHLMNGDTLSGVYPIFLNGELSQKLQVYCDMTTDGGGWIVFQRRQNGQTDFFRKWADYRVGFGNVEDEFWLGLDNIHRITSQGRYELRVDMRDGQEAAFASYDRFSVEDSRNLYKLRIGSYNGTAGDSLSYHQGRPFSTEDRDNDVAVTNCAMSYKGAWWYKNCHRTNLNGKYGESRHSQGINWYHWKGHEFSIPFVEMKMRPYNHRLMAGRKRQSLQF
Experimental: Detailed kinetic parameters were evaluated for the 9 prioritised IgG4 antibodies. Binding characteristics were determined for interaction with human, rat and dog TNC rCD4-His-FBG, and human TNR rCD4-His-FBG. Kinetic assays followed essentially the same protocols as for the off-rate determinations described above, with some modifications as follows. […] Purified anti-FBG IgG4 was diluted to a concentration of 3.5 nM in PBS, pH 7.4, 0.05% Tween-20 and injected into FC2 at a flow rate of 10 μl/min, 60 s contact time. […] Antigens were prepared by doubling dilution in PBS, pH 7.4, 0.05% Tween-20 (highest concentration 100 nM except mouse rCD4-His-FBG which was 7 nM). Assays were performed at 37° C. (30 μl/min, 120 s contact time; mouse rCD4-His-FBGFBG 10 μl/min, 60 s contact time), with both the flow cell and injection chamber equilibrated to this temperature. As before, kinetic parameters were determined by reference cell subtraction and fitting the sensogram experimental data assuming a 1:1 interaction using BIAevaluation software (GE, BR-1005-97).

[2] = molecular target: T2, human Fc-His-FBG (human, UniProt P24821 1974-2201); experiment: plate assay: inhibition of binding of 100 nM Fc-His-TNC-FBG to coated TLR4, against isotype control
T2 construct: C-terminal FBG fusion to human IgG1 Fc; also called Fc-His-huFBG; huFc-His-FBG; not shown: human IgG1 Fc tag; 6His tag
T2 sequence: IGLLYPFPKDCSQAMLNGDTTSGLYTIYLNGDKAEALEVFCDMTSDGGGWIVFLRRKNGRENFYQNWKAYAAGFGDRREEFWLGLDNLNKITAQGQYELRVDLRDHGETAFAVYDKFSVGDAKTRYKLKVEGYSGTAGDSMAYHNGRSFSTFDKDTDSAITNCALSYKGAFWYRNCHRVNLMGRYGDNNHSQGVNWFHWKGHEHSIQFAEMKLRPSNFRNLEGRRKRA
Experimental: FIG. 16B. […] Detection was carried out by successive incubation of antibody directed against the Fc portion of the protein, an anti-mouse HRP conjugated secondary antibody and TMB substrate.
Detection was carried out by successive incubation of antibody directed against the Fc portion of the protein, an anti-mouse HRP conjugated secondary antibody and TMB substrate.

[3] = molecular target: T1, human tenascin-R rCd4-His-FBG; experiment: SPR off-rate screen, captured IgG4 supernatant, 25 C; off-rate screen, IgG4 in culture supernatant, 100 nM TNR antigen, 25 C
Experimental: The 31 scFv of interest were sub-cloned into a human IgG4 expression vector for generation of antibodies as human IgG4 with a hinge-stabilising mutation (S241P; Angal et al, 1993). […] Briefly, surface plasmon resonance (SPR) experiments were performed using a BIAcore T100 instrument and followed the protocol according to the Human antibody capture kit protocol (GE, BR-1008-39). For off-rate screening, 10,000 response units (RU) of anti-human Fc IgG (GE, BR-1008-39) was immobilised on flow-cells (FC1 and FC2) of a Series 5 CM5 dextran sensor chip (BR-1005-30) using EDC/NHS cross-linking chemistry according to the amine coupling kit protocol (GE, BR-1000-50). Culture supernatants containing expressed IgG4 were diluted 1:2 with 2×PBS-T and injected into FC2 (flowrate 5 μl/min, 60 s contact time) to enable antibody capture at 25° C. […] A fixed concentration of antigen (15 nM of human and mouse TNC rCd4-His-FBG and 100 nM of human TNR rCd4-His-FBG) was injected with a flow-path via FC 1 (reference flow cell) and FC 2 (antibody capture flow cell), with a flow rate of 30 μl/min, and the association and dissociation phases measured over 1 and 5 min time periods, respectively. […] Off rates were determined by reference cell subtraction and fitting the sensogram experimental data assuming a 1:1 interaction using BIAevaluation software (GE, BR-1005-97).

B1: 165_13_C3 human IgG4 (antibody, V domains shown)
VH: QVQLVESGGGLVQPGRSLRLSCAASGFTFDDYAMHWVRQAPGKGLEWVSGISGSGGSTYYADSVKGRFTISRDNAKNSLYLQMNSLRAEDTALYYCAKSYQSDEDAFDIWGQGTMVTVSS
VL: DIQMTQSPASLPTPVGDRVTITCRASQYIQGFLNWYQQKPGKAPKLLIYDASNLETGVPSRFSGSGSGTDFTLTISSLQPEDFATYYCQQSYSTPQTFGQGTKVDIKR
notes: also called IgG4 C3; C3 IgG4 MAb
**Q.** With B1 as the binder, how does the Kd [1] read?
**A.** The Kd was 35.8 nM.

**Q.** And the koff [1]?
**A.** Its koff is 0.0431 s⁻¹.

**Q.** And the kon [1]?
**A.** Its kon is 1.2e+06 M⁻¹ s⁻¹.

**Q.** What about the IC50 [2] of the same binder?
**A.** The IC50 was 44.5 nM.

**Q.** What about the koff [3] of the same binder?
**A.** The koff was 0.012 s⁻¹.
